From article PMC3014449 (2010)
Positions of bridges follow the written chain, without caps; N, C: chain ends. Non-standard residues stand in square brackets, D forms with d. Trp(1-Me) = Cn1cc(C[C@H](N)C(=O)O)c2ccccc21; NMeI = CC[C@H](C)[C@H](NC)C(=O)O; Sar = CNCC(=O)O

Molecular target: C3b C3b (Homo sapiens, UniProt P01024)
Test: SPR

Chain of C3b C3b (P01024 566-670): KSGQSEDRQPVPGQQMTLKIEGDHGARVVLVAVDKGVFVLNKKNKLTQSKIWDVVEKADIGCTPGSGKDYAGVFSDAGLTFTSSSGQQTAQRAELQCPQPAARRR

B1: compstatin analogue 21 (peptide)
chain: Ac-ICV[Trp(1-Me)]QDW[Sar]AHRC[NMeI]-NH2
modifications: disulfide 2-12
SMILES: CC[C@H](C)[C@H](NC(C)=O)C(=O)N[C@H]1CSSC[C@@H](C(=O)N(C)[C@H](C(N)=O)[C@@H](C)CC)NC(=O)[C@H](CCCNC(=N)N)NC(=O)[C@H](Cc2c[nH]cn2)NC(=O)[C@H](C)NC(=O)CN(C)C(=O)[C@H](Cc2c[nH]c3ccccc23)NC(=O)[C@H](CC(=O)O)NC(=O)[C@H](CCC(N)=O)NC(=O)[C@H](Cc2cn(C)c3ccccc23)NC(=O)[C@H](C(C)C)NC1=O
Kd: 2.3 nM
